Earlier results as cited in publication PMC3367028.

Target: CD74 (Homo sapiens) (UniProt P04233)
Experiment: SPR

Chain of UniProt P04233 (P04233 73-296): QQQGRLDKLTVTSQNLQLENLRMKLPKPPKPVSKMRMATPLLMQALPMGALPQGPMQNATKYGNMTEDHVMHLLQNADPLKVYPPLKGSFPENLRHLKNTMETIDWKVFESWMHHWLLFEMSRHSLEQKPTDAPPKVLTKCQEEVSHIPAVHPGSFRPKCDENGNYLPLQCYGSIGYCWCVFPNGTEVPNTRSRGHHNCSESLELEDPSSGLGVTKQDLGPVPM

## D-DT (from UniProt P30046)
  Kd: 5.42 nM
